System: Escherichia coli TOP10
Test: shrunken log2 fold change of peptide-encoding DNA abundance (4.5 h post-induction vs induction); higher = less antimicrobial activity (less host growth inhibition)
Settings: time post-induction: 4.5 h; library: site-saturation at positions 5, 18, 19, 20
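Further: peptides expressed intracellularly from a pBAD plasmid library in pooled LB shake-flask culture, induced with 0.3% L-arabinose, DNA abundance read by NGS, three biological replicates, DESeq2 with apeglm shrinkage.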

Sequence	shrunken log2 fold change
RRIRQRPPRLPRPRPRPRRGPRP	0.502
RRIRARPPRLPRPRPRPVELPRP	0.0828
RRIRRRPPRLPRPRPRPEQIPRP	0.0197
RRIRSRPPRLPRPRPRPNQCPRP	-0.215
RRIRWRPPRLPRPRPRPLWYPRP	-0.225
RRIRKRPPRLPRPRPRPRSPPRP	0.6
RRIRSRPPRLPRPRPRPLSWPRP	0.239
RRIRFRPPRLPRPRPRPGERPRP	0.266
RRIRRRPPRLPRPRPRPMHFPRP	0.0461
RRIRFRPPRLPRPRPRPYDFPRP	-0.0848
RRIRMRPPRLPRPRPRPTIGPRP	0.277
RRIRWRPPRLPRPRPRPEKVPRP	0.115
RRIRLRPPRLPRPRPRPLNRPRP	-0.317
RRIRYRPPRLPRPRPRPQPHPRP	-0.348
RRIRQRPPRLPRPRPRPSPWPRP	0.433
RRIRNRPPRLPRPRPRPAIIPRP	0.154
RRIRIRPPRLPRPRPRPGNQPRP	-0.839
RRIRDRPPRLPRPRPRPESMPRP	0.0145
RRIRIRPPRLPRPRPRPWNRPRP	0.000744
RRIRIRPPRLPRPRPRPYWYPRP	-0.0124
RRIRQRPPRLPRPRPRPQIDPRP	-0.0357
RRIRCRPPRLPRPRPRPKHQPRP	-0.0465
RRIRKRPPRLPRPRPRPVLRPRP	0.0359
RRIRLRPPRLPRPRPRPFEVPRP	0.0377
RRIRERPPRLPRPRPRPLTKPRP	-0.0153

Sequence	shrunken log2 fold change
RRIRNRPPRLPRPRPRPWRMPRP	0.0039
RRIRHRPPRLPRPRPRPMSLPRP	-0.00613
RRIRRRPPRLPRPRPRPNNWPRP	0.612
RRIRYRPPRLPRPRPRPMPEPRP	0.0501
RRIRARPPRLPRPRPRPTDCPRP	0.0381
RRIRLRPPRLPRPRPRPSPRPRP	0.307
RRIRCRPPRLPRPRPRPEWHPRP	-0.0462
RRIRCRPPRLPRPRPRPERYPRP	-0.153
RRIRTRPPRLPRPRPRPPPDPRP	0.58
RRIRERPPRLPRPRPRPGVRPRP	0.125
RRIRPRPPRLPRPRPRPGENPRP	0.184
RRIRVRPPRLPRPRPRPWYVPRP	-0.971
RRIRLRPPRLPRPRPRPQWAPRP	0.123
RRIRKRPPRLPRPRPRPYNAPRP	-0.171
RRIRGRPPRLPRPRPRPCDTPRP	0.13
RRIRRRPPRLPRPRPRPFVFPRP	0.274
RRIRKRPPRLPRPRPRPFAIPRP	-0.00592
RRIRDRPPRLPRPRPRPTAYPRP	-0.22
RRIRVRPPRLPRPRPRPCQGPRP	-0.226
RRIRFRPPRLPRPRPRPQYGPRP	-0.0328
RRIRERPPRLPRPRPRPIICPRP	-0.0147
RRIRIRPPRLPRPRPRPDYWPRP	-0.195
RRIRMRPPRLPRPRPRPNFPPRP	-0.186
RRIRCRPPRLPRPRPRPLHGPRP	-0.089
RRIRIRPPRLPRPRPRPVQTPRP	-0.0646

Sequence	shrunken log2 fold change
RRIRVRPPRLPRPRPRPQQGPRP	0.403
RRIRRRPPRLPRPRPRPTIEPRP	0.212
RRIRHRPPRLPRPRPRPDWIPRP	-0.111
RRIRVRPPRLPRPRPRPEGRPRP	0.0493
RRIRWRPPRLPRPRPRPAIYPRP	-0.259
RRIRFRPPRLPRPRPRPHGRPRP	0.187
RRIRFRPPRLPRPRPRPFVWPRP	-0.0869
RRIRERPPRLPRPRPRPVKEPRP	-0.0153
RRIRLRPPRLPRPRPRPLQEPRP	-0.101
RRIRNRPPRLPRPRPRPCPTPRP	-0.0624
RRIRARPPRLPRPRPRPCYDPRP	-0.56
RRIRRRPPRLPRPRPRPQSNPRP	-0.285
RRIRVRPPRLPRPRPRPHFYPRP	-0.173
RRIRPRPPRLPRPRPRPVDCPRP	0.00936
RRIRSRPPRLPRPRPRPRFDPRP	0.248
RRIRLRPPRLPRPRPRPMKQPRP	0.132
RRIRRRPPRLPRPRPRPCAVPRP	0.0527
RRIRDRPPRLPRPRPRPMSLPRP	-0.558
RRIRLRPPRLPRPRPRPAHEPRP	0.408
RRIRWRPPRLPRPRPRPYTRPRP	-0.774
RRIRSRPPRLPRPRPRPLYPPRP	-0.813
RRIRFRPPRLPRPRPRPILDPRP	-0.0134
RRIRERPPRLPRPRPRPMAEPRP	0.0131
RRIRTRPPRLPRPRPRPTMRPRP	0.867
RRIRARPPRLPRPRPRPSNLPRP	-0.39

— the supplement of paper PMC9112550, “Optimization of the antimicrobial peptide Bac7 by deep mutational scanning” (BMC Biology, 2022)
